Data as given in the supplement of paper PMC12458215.
± gives the uncertainty stated by the source.

Tested on: HEK293T
Experiment: plasma membrane surface immunostaining intensity (anti-HA, deep receptor scanning) (arbitrary fluorescence units); higher = higher plasma membrane expression

Sequence: MEDFNMESDSFEDFWKGEDLSNYSYSSTLPPFLLDAAPCEPESLEINKYFVVIIYALVFLLSLLGNSLVMLVILYSRVGRSVTDVYLLNLALADLLFALTLPIWAASKVNGWIFGTFLCKVVSLLKEVNFYSGILLLACISVDRYLAIVHATRTLTQKRYLVKFICLSIWGLSLLLALPVLLFRRTVYSSNVSPACYEDMGNNTANWRMLLRILPQSFGFIVPLLIMLFCYGFTLRTLFKAHMGQKHRAMRVIFAVVLIFLLCWLPYNLVLLADTLMRTQVIQETCERRNHIDRALDATEILGILHSCLNPLIYAFIGQKFRHGLLKILAIHGLISKDSLPKDSRPSFVGSSSGHTSTTL [CXCR2]
- plasma membrane surface immunostaining intensity (GPCR class: A): 266 ± 3.4

Sequence: MEDLEETLFEEFENYSYDLDYYSLESDLEEKVQLGVVHWVSLVLYCLAFVLGIPGNAIVIWFTGFKWKKTVTTLWFLNLAIADFIFLLFLPLYISYVAMNFHWPFGIWLCKANSFTAQLNMFASVFFLTVISLDHYIHLIHPVLSHRHRTLKNSLIVIIFIWLLASLIGGPALYFRDTVEFNNHTLCYNNFQKHDPDLTLIRHHVLTWVKFIIGYLFPLLTMSICYLCLIFKVKKRSILISSRHFWTILVVVVAFVVCWTPYHLFSIWELTIHHNSYSHHVMQAGIPLSTGLAFLNSCLNPILYVLISKKFQARFRSSVAEILKYTLWEVSCSGTVSEQLRNSETKNLCLLETAQ [CMKLR2]
- plasma membrane surface immunostaining intensity (GPCR class: A): 510 ± 52

Sequence: MEEAILLNQTSLVTYFRLRGLSVNHKARIAMFSMFLIFYVLTLIGNVLIVITIIYDHRLHTPMYFFLSNLSFIDVCHSTVTVPKMLRDVWSEEKLISFDACVTQMFFLHLFACTEIFLLTVMAYDRYVAICKPLQYMIVMNWKVCVLLAVALWTGGTIHSIALTSLTIKLPYCGPDEIDNFFCDVPQVIKLACIDTHVIEILIVSNSGLISVVCFVVLVVSYAVILVSLRQQISKGKRKALSTCAAHLTVVTLFLGHCIFIYSRPSTSLPEDKVVSVFFTAVTPLLNPIIYTLRNEEMKSALNKLVGRKERKEEK [OR4E1]
- plasma membrane surface immunostaining intensity (GPCR class: A (Olfactory)): 264 ± 95

Sequence: MEEENATLLTEFVLTGFLYQPQWKIPLFLAFLVIYLITIMGNLGLIAVIWKDPHLHIPMYLLLGNLAFVDALLSSSVTLKMLINFLAKSKMISLSECKIQLFSFAISVTTECFLLATMAYDRYVAICKPLLYPAIMTNGLCIRLLILSYVGGLLHALIHEGFLFRLTFCNSNIIQHFYCDIIPLLKISYTDSSINFLMVFIFAGSIQVFTIGTVLISYIFVLYTILKKKSVKGMRKAFSTCGAHLLSVSLYYGPLAFMYMGSASPQADDQDMMESLFYTVIVPLLNPMIYSLRNKQVIASFTKMFKRNDV [OR5H14]
- plasma membrane surface immunostaining intensity (GPCR class: A (Olfactory)): 116 ± 19

Sequence: MEEENATLLTEFVLTGFLYQPQWKIPLFLAFLVIYLITIMGNLGLIAVIWKDPHLHIPMYLLLGNLAFVDAWISSTVTPKMLNNFLAKSKMISLSECKIQFFSFAISVTTECFLLATMAYDRYVAICKPLLYPAIMTNGLCIRLLILSYVGGILHALIHEGFLFRLTFCNSNIVHHIYCDTIPLSKISCTDSSINFLMVFIFSGSIQVFSIVTILVSYTFVLFAILKKKSDKGVRKAFSTCGAHLFSVSLYYGPLLFIYVGPASPQADDQDMVEPLFYTVIIPLLNPIIYSLRNKQVTVSFTKMLKKHVKVSY [OR5H1]
- plasma membrane surface immunostaining intensity (GPCR class: A (Olfactory)): 124 ± 20

Sequence: MEEENATLLTEFVLTGFLYQPQWKIPLFLAFLVIYLITIMGNLGLIAVIWKDPHLHIPMYLLLGNLAFVDAWISSTVTPKMLNNFLAKSKMISLSECKIQFFSIAIGVTTECFLLATMAYDRYVAICKPLLYPAIMTNGLCIRLLILSYIAGILHALIHEGFLFRLTFCNSNIVHHIYCDTIPLSKISCTDSSINFLMVFIFSGSIQVFSIVTILISYTFVLFTVLEKKSDKGVRKAFSTCGAHLFSVCLYYGPLLLMYVGPASPQADGQNMVEPLFYTVIIPLLNPIIYSLRNKQVIVSFIKMLKRNVKVSY [OR5H15]
- plasma membrane surface immunostaining intensity (GPCR class: A (Olfactory)): 181 ± 56

Sequence: MEEGGDFDNYYGADNQSECEYTDWKSSGALIPAIYMLVFLLGTTGNGLVLWTVFRSSREKRRSADIFIASLAVADLTFVVTLPLWATYTYRDYDWPFGTFFCKLSSYLIFVNMYASVFCLTGLSFDRYLAIVRPVANARLRLRVSGAVATAVLWVLAALLAMPVMVLRTTGDLENTTKVQCYMDYSMVATVSSEWAWEVGLGVSSTTVGFVVPFTIMLTCYFFIAQTIAGHFRKERIEGLRKRRRLLSIIVVLVVTFALCWMPYHLVKTLYMLGSLLHWPCDFDLFLMNIFPYCTCISYVNSCLNPFLYAFFDPRFRQACTSMLCCGQSRCAGTSHSSSGEKSASYSSGHSQGPGPNMGKGGEQMHEKSIPYSQETLVVD [APLNR]
- plasma membrane surface immunostaining intensity (GPCR class: A): 6400 ± 84

Sequence: MEETNNSSEKGFLLLGFSDQPQLERFLFAIILYFYVLSLLGNTALILVCCLDSRLHTPMYFFLSNLSCVDICFTTSVAPQLLVTMNKKDKTMSYGGCVAQLYVAMGLGSSECILLAVMAYDRYAAVCRPLRYIAIMHPRFCASLAGGAWLSGLITSLIQCSLTVQLPLCGHRTLDHIFCEVPVLIKLACVDTTFNEAELFVASVVFLIVPVLLILVSYGFITQAVLRIKSAAGRQKAFGTCSSHLVVVIIFYGTIIFMYLQPANRRSKNQGKFVSLFYTIVTPLLNPIIYTLRNKDVKGALRTLILGSAAGQSHKD [OR2G6]
- plasma membrane surface immunostaining intensity (GPCR class: A (Olfactory)): 122 ± 18

Sequence: MEGALAANWSAEAANASAAPPGAEGNRTAGPPRRNEALARVEVAVLCLILLLALSGNACVLLALRTTRQKHSRLFFFMKHLSIADLVVAVFQVLPQLLWDITFRFYGPDLLCRLVKYLQVVGMFASTYLLLLMSLDRCLAICQPLRSLRRRTDRLAVLATWLGCLVASAPQVHIFSLREVADGVFDCWAVFIQPWGPKAYITWITLAVYIVPVIVLAACYGLISFKIWQNLRLKTAAAAAAEAPEGAAAGDGGRVALARVSSVKLISKAKIRTVKMTFIIVLAFIVCWTPFFFVQMWSVWDANAPKEASAFIIVMLLASLNSCCNPWIYMLFTGHLFHELVQRFLCCSASYLKGRRLGETSASKKSNSSSFVLSHRSSSQRSCSQPSTA [OXTR]
- plasma membrane surface immunostaining intensity (GPCR class: A): 5390 ± 230

Sequence: MEGDSYHNATTVNGTPVNHQPLERHRLWEVITIAAVTAVVSLITIVGNVLVMISFKVNSQLKTVNNYYLLSLACADLIIGIFSMNLYTTYILMGRWALGSLACDLWLALDYVASNASVMNLLVISFDRYFSITRPLTYRAKRTPKRAGIMIGLAWLISFILWAPAILCWQYLVGKRTVPLDECQIQFLSEPTITFGTAIAAFYIPVSVMTILYCRIYRETEKRTKDLADLQGSDSVTKAEKRKPAHRALFRSCLRCPRPTLAQRERNQASWSSSRRSTSTTGKPSQATGPSANWAKAEQLTTCSSYPSSEDEDKPATDPVLQVVYKSQGKESPGEEFSAEETEETFVKAETEKSDYDTPNYLLSPAAAHRPKSQKCVAYKFRLVVKADGNQETNNGCHKVKIMPCPFPVAKEPSTKGLNPNPSHQMTKRKRVVLVKERKAAQTLSAILLAFIITWTPYNIMVLVSTFCDKCVPVTLWHLGYWLCYVNSTVNPICYALCNRTFRKTFKMLLLCRWKKKKVEEKLYWQGNSKLP [CHRM5]
- plasma membrane surface immunostaining intensity (GPCR class: A): 1470 ± 190

Sequence: MEGISIYTSDNYTEEMGSGDYDSMKEPCFREENANFNKIFLPTIYSIIFLTGIVGNGLVILVMGYQKKLRSMTDKYRLHLSVADLLFVITLPFWAVDAVANWYFGNFLCKAVHVIYTVNLYSSVLILAFISLDRYLAIVHATNSQRPRKLLAEKVVYVGVWIPALLLTIPDFIFANVSEADDRYICDRFYPNDLWVVVFQFQHIMVGLILPGIVILSCYCIIISKLSHSKGHQKRKALKTTVILILAFFACWLPYYIGISIDSFILLEIIKQGCEFENTVHKWISITEALAFFHCCLNPILYAFLGAKFKTSAQHALTSVSRGSSLKILSKGKRGGHSSVSTESESSSFHSS [CXCR4]
- plasma membrane surface immunostaining intensity (GPCR class: A): 814 ± 140

Sequence: MEGNKTWITDITLPRFQVGPALEILLCGLFSAFYTLTLLGNGVIFGIICLDCKLHTPMYFFLSHLAIVDISYASNYVPKMLTNLMNQESTISFFPCIMQTFLYLAFAHVECLILVVMSYDRYADICHPLRYNSLMSWRVCTVLAVASWVFSFLLALVPLVLILSLPFCGPHEINHFFCEILSVLKLACADTWLNQVVIFAACVFILVGPLCLVLVSYLRILAAILRIQSGEGRRKAFSTCSSHLCVVGLFFGSAIVTYMAPKSRHPEEQQKVLSLFYSLFNPMLNPLIYSLRNAEVKGALRRALRKERLT [OR2A14]
- plasma membrane surface immunostaining intensity (GPCR class: A (Olfactory)): 121 ± 40

Sequence: MEGNQTWITDITLLGFQVGPALAILLCGLFSVFYTLTLLGNGVIFGIICLDSKLHTPMYFFLSHLAIIDMSYASNNVPKMLANLMNQKRTISFVPCIMQTFLYLAFAVTECLILVVMSYDRYVAICHPFQYTVIMSWRVCTILVLTSWSCGFALSLVHEILLLRLPFCGPRDVNHLFCEILSVLKLACADTWVNQVVIFATCVFVLVGPLSLILVSYMHILGAILKIQTKEGRIKAFSTCSSHLCVVGLFFGIAMVVYMVPDSNQREEQEKMLSLFHSVFNPMLNPLIYSLRNAQLKGALHRALQRKRSMRTVYGLCL [OR2A2]
- plasma membrane surface immunostaining intensity (GPCR class: A (Olfactory)): 129 ± 17

Sequence: MEHTHAHLAANSSLSWWSPGSACGLGFVPVVYYSLLLCLGLPANILTVIILSQLVARRQKSSYNYLLALAAADILVLFFIVFVDFLLEDFILNMQMPQVPDKIIEVLEFSSIHTSIWITVPLTIDRYIAVCHPLKYHTVSYPARTRKVIVSVYITCFLTSIPYYWWPNIWTEDYISTSVHHVLIWIHCFTVYLVPCSIFFILNSIIVYKLRRKSNFRLRGYSTGKTTAILFTITSIFATLWAPRIIMILYHLYGAPIQNRWLVHIMSDIANMLALLNTAINFFLYCFISKRFRTMAAATLKAFFKCQKQPVQFYTNHNFSITSSPWISPANSHCIKMLVYQYDKNGKPIKVSP [GPR139]
- plasma membrane surface immunostaining intensity (GPCR class: A): 3010 ± 800

Sequence: MEIVSTGNETITEFVLLGFYDIPELHFLFFIVFTAVYVFIIIGNMLIIVAVVSSQRLHKPMYIFLANLSFLDILYTSAVMPKMLEGFLQEATISVAGCLLQFFIFGSLATAECLLLAVMAYDRYLAICYPLHYPLLMGPRRYMGLVVTTWLSGFVVDGLVVALVAQLRFCGPNHIDQFYCDFMLFVGLACSDPRVAQVTTLILSVFCLTIPFGLILTSYARIVVAVLRVPAGASRRRAFSTCSSHLAVVTTFYGTLMIFYVAPSAVHSQLLSKVFSLLYTVVTPLFNPVIYTMRNKEVHQALRKILCIKQTETLD [OR11A1]
- plasma membrane surface immunostaining intensity (GPCR class: A (Olfactory)): 398 ± 120

Sequence: MEKANETSPVMGFVLLRLSAHPELEKTFFVLILLMYLVILLGNGVLILVTILDSRLHTPMYFFLGNLSFLDICFTTSSVPLVLDSFLTPQETISFSACAVQMALSFAMAGTECLLLSMMAFDRYVAICNPLRYSVIMSKAAYMPMAASSWAIGGAASVVHTSLAIQLPFCGDNVINHFTCEILAVLKLACADISINVISMEVTNVIFLGVPVLFISFSYVFIITTILRIPSAEGRKKVFSTCSAHLTVVIVFYGTLFFMYGKPKSKDSMGADKEDLSDKLIPLFYGVVTPMLNPIIYSLRNKDVKAAVRRLLRPKGFTQ [OR2S2]
- plasma membrane surface immunostaining intensity (GPCR class: A (Olfactory)): 120 ± 24
